Test results taken from article PMC13462943.

Target: SAM
Test: native mass spectrometry
Settings: protein and substrate concentrations 5 µM

- other: relative abundance, 1x SAM bound (parent: 11): 18
- other: relative abundance, free protein (parent: 88): 80
Substance: GLP methyltransferase domain (aa 1001-1266), wild type (from UniProt Q9H9B1-1) C1073Y
